Test results published in the RNAGym collection of RNA variant scans (doi:10.1073/pnas.2313332121).

B1: TPR t1 (parent)
chain: GACCAAUCUGCCCUCAGAGCUCGAGAACAUCUUCGGAUGCAGAGGAGGCAGGCUUCGGUGGCGCGAUAGCGCCAACGUCCUCAACCUCCAAUGCAUCCCACCACAUGAUGAUGCCUGAAGAGCCUUGGUUUUUUG

Variants of: B1
Experiment: polymerase ribozyme fitness, log enrichment relative to wild type (log ratio); higher = more active; in vitro selection for triplet polymerase activity
In short: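 Input and output libraries were sequenced on Illumina after a single in vitro selection round, run in triplicate on PCR-built, transcribed mutant libraries of each subunit of a heterodimeric triplet polymerase ribozyme. Selection annealed libraries to a biotinylated primer, the partner subunit and triplets, incubated them frozen at −7 °C, then gel-excised extended constructs for streptavidin-bead capture and RT-PCR. Genotypes with ≥10 input reads and ≥1 read per output were kept. Fitness is the logarithm, taken in base 2, of genotype enrichment divided by wild-type enrichment, using inverse-variance-weighted replicate averages.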

Point of comparison: C124U U125A, “polymerase ribozyme fitness (log ratio)” value 0.926. Against it:
- C115U A119U U130G — lower, -1.35
- A121C G122A — higher, 1.31
- G120U G127C — lower, -0.262
- G120U G127U — higher, 1.64
- G113C U125C — lower, -2.26
- G113C U125G — lower, -2.58
- C115U C123G — lower, -0.112
- G120C U133A — higher, 1.48
- G117U A119U — lower, -3.92
- G113U A118U — lower, -2.55
- A121C C123U — lower, 0.54
- G120A C123U — higher, 1.96
- A121U C124U — higher, 2.15
- C115U G120A — lower, -2.24
- A121G U125A — higher, 2.32
- C123G G135U — higher, 1.4
- U112A C123A — higher, 1.45
- G117C G120U U131G — lower, -4.67
- C114G C115U — lower, -4.37
- G120C G127C — lower, -0.522
- G120C G127A — lower, 0.0309
- C114U U125A — lower, -3.07
- G110A U131G — lower, -1.96
- U112G C124U — within 0.2 log units, 0.835
- A121C U126A — lower, 0.358
- U112G U116C — lower, -0.775
- G113U G122U — lower, -2.45
- A121U C123G — higher, 1.92
- G120U C123A — lower, -0.201
- A111G C124A — higher, 1.23
- A111C G127C — lower, -0.199
- C114A U129G U130C — lower, -2.79
- G113U — lower, -2.64
- G113C — lower, -2.02
- G113A — lower, -1.01
- U112G G122A G128A — lower, -2.62
- G120A U130C — within 0.2 log units, 0.856
- G120A U130G — lower, 0.245
- U126A U130A — lower, -3.19
- G120U C124U — higher, 1.38
- U116C G117U — lower, -1.01
- G117U U129G — lower, -4.23
- G122A U133G — lower, -0.871
- U112A C115A U125G — lower, 0.414
- G113A G120U — lower, -2.35
- U112C G122A — lower, 0.065
- A111G C124A U126A — lower, 0.226
- G113C C114U C115G C124U — lower, -3.2
- U116C U133A — lower, -0.508
- A121C U133A — lower, -0.797
- G113A G127U — lower, -3.27
- C115U A118U U130G — lower, -1.69
- G120U U132A — lower, 0.126
- C115G G120A — lower, -1.35
- U109G A119G G135C — lower, -3.19
- U112A G128C — lower, -2.66
- U130C — lower, 0.0585
- U130A — lower, -0.523
- U130G — lower, -0.361
- U109C C123U — lower, -4.63
- G117C U126G — lower, -3.22
- G117C U131C — lower, -3.27
- C114A A121U — lower, -1.18
- G120C A121U — higher, 2.44
- A111G G113U U129G U131A — lower, -6.64
- G120C C124U — higher, 1.74
- A121C U129A — lower, -1.04
- G110A A111U — lower, -1.9
- C123U U129A — lower, 0.307
- U112A U131A — within 0.2 log units, 1.02
- G117A U130G — lower, -1.63
- G113A A118C — lower, -2.55
- G113A A118U — lower, -2.67
- U116A C124A — lower, 0.141
- G110U U130C — lower, -1.04
- G110U U130A — lower, -1.27
- G113A C115A — lower, -3.51
- C114A U125A — lower, -1.73
- A121C G127A G128U — lower, -0.559
- A111U C124U — lower, -3.09
- C114U U116A — lower, -5.58
- G120A G135C — lower, 0.457
- C114A C123U — lower, -3.16
- A118U G120A — lower, -0.267
- G110C U131C — lower, -3.75
- C123A G128C — lower, -0.87
